Test results from US20240400614A1, “CLEAVABLE PEPTIDES AND METHODS OF USE THEREOF” (Bright Peak Therapeutics AG, priority 2023, published 2024).
Square brackets hold non-standard residues; d marks the D form. Ends that are not written are not given here. Tyr(3-NO2) = N[C@@H](Cc1ccc(O)c([N+](=O)[O-])c1)C(=O)O; 2Abz = Nc1ccccc1C(=O)O

Tests used:
Format in all cases: biochemical
MMP-9 = molecular target: T1, MMP-9 (Homo sapiens, UniProt P14780); assay: FRET peptide cleavage efficiency with MMP-9 (standard pH 7.5; also pH 6.5)
T1 construct: purchased SIGMA PF024
T1 sequence (P14780 94-707): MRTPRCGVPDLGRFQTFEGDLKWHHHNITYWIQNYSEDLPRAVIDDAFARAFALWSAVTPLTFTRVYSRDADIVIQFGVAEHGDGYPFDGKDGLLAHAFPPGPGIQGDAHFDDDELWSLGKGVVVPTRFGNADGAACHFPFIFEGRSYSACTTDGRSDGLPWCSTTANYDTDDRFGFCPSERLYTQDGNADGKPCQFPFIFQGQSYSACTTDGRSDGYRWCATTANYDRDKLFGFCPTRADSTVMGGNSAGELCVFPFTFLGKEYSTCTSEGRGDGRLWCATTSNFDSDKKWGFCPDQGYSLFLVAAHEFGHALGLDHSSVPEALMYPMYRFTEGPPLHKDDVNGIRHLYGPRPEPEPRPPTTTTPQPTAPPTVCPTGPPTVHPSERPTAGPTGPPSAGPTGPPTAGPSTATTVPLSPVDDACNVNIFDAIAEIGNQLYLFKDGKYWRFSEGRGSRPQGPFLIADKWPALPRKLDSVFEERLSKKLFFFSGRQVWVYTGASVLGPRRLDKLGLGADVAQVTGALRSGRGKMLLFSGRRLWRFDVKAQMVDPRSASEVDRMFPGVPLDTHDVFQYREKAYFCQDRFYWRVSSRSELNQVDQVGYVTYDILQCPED

matriptase = molecular target: T2, matriptase (Homo sapiens, UniProt Q9Y5Y6); assay: FRET peptide cleavage efficiency with matriptase
T2 construct: purchased R&D Systems 3946-SEB
T2 sequence (Q9Y5Y6 615-855 limits assumed): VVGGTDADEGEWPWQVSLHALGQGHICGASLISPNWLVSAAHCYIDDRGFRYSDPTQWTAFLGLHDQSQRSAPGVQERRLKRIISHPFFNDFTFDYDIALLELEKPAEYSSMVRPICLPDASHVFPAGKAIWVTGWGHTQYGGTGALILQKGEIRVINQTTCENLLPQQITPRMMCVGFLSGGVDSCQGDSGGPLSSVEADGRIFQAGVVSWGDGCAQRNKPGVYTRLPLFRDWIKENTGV

MMP-7 = molecular target: T3, MMP-7 (Homo sapiens, UniProt P09237); assay: FRET peptide cleavage efficiency with MMP-7 (standard pH 7.5; also pH 6.5)
T3 construct: purchased SIGMA CC1059
T3 sequence (P09237 95-267): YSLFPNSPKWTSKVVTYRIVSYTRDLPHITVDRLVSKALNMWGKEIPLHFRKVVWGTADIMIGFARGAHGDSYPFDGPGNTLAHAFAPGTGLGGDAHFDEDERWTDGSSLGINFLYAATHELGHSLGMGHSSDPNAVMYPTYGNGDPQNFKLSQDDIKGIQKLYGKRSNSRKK

MMP-2 = molecular target: T4, MMP-2 (Homo sapiens, UniProt P08253); assay: FRET peptide cleavage efficiency with MMP-2
T4 construct: purchased SIGMA PF023
T4 sequence (P08253 110-660): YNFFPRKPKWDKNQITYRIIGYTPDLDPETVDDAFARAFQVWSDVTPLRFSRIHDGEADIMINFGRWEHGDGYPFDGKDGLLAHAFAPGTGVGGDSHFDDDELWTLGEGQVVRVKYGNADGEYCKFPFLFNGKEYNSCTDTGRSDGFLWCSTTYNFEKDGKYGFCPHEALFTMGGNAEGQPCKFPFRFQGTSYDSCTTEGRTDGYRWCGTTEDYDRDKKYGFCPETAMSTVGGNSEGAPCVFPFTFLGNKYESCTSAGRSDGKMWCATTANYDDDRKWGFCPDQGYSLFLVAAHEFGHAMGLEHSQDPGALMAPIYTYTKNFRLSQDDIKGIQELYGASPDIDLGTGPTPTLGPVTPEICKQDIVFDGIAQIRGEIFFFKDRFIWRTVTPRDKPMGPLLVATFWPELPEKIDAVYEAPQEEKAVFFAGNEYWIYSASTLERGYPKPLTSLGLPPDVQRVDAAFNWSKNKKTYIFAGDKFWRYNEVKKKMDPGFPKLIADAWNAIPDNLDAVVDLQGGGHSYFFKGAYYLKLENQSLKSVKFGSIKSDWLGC

uPA = uPA (Homo sapiens, UniProt P00749); assay: FRET peptide cleavage efficiency with uPA
[1] = 200 uM linker, 1 ug/ml protease, 37° C., buffer B pH 9.0
[2] = t = 15 min, 200 uM linker, 1 ug/ml protease, 37° C., buffer C pH 7.5
[3] = t = 60 min, 200 uM linker, 1 ug/ml protease, 37° C., buffer C pH 7.5
[4] = t = 120 min, 200 uM linker, 1 ug/ml protease, 37° C., buffer C pH 7.5
[5] = 200 uM linker, 1 ug/ml protease, 37° C., buffer A pH 8.5
[6] = t = 15 min, standard conditions (Table 8)
[7] = t = 60 min, standard conditions (Table 8)
[8] = t = 120 min, standard conditions (Table 8)

Row | Substance | % cleavage MMP-9 t = 15 min (MMP-9; t = 15 min (Table 9)) | % cleavage MMP-9 t = 60 min (MMP-9; t = 60 min (Table 9)) | % cleavage MMP-9 t = 120 min (MMP-9; t = 120 min (Table 9)) | % cleavage MMP-7 t = 15 min (MMP-7; t = 15 min (Table 9)) | % cleavage MMP-7 t = 60 min (MMP-7; t = 60 min (Table 9)) | % cleavage MMP-7 t = 120 min (MMP-7; t = 120 min (Table 9)) | % cleavage MMP-2 t = 15 min (MMP-2; t = 15 min (Table 9)) | % cleavage MMP-2 t = 60 min (MMP-2; t = 60 min (Table 9)) | % cleavage MMP-2 t = 120 min (MMP-2; t = 120 min (Table 9)) | % cleavage MMP-9 t = 15 min (MMP-9; [6]) | % cleavage MMP-9 t = 60 min (MMP-9; [7]) | % cleavage MMP-9 t = 120 min (MMP-9; [8]) | % cleavage Matriptase t = 15 min (matriptase; standard conditions (Table 8)) | % cleavage Matriptase t = 60 min (matriptase; standard conditions (Table 8)) | % cleavage Matriptase t = 120 min (matriptase; standard conditions (Table 8)) | % cleavage MMP-7 t = 15 min (MMP-7; [6]) | % cleavage MMP-7 t = 60 min (MMP-7; [7]) | % cleavage MMP-7 t = 120 min (MMP-7; [8]) | % cleavage MMP-2 t = 60 min (MMP-2; [7]) | % cleavage MMP-2 t = 120 min (MMP-2; [8]) | other results
1 | RGRRPLGLAG ([2Abz]RGRRPLGLAG[Tyr(3-NO2)]-NH2) [LNK049] | 56% | 100% | 100% | 1% | 4% | 8% | 89% | 100% | 100% | – | – | – | – | – | – | – | – | – | – | – | % cleavage Matriptase t = 15 min (matriptase; [1]): 16%; % cleavage Matriptase t = 60 min (matriptase; [1]): 70%; % cleavage Matriptase t = 120 min (matriptase; [1]): 100%; % cleavage MMP-2 t = 15 min (MMP-2; [2]): 89%; % cleavage MMP-2 t = 60 min (MMP-2; [3]): 100%; % cleavage MMP-2 t = 120 min (MMP-2; [4]): 100%; % cleavage uPA t = 15 min (uPA; [5]): 0%; % cleavage uPA t = 60 min (uPA; [5]): 0%; % cleavage uPA t = 120 min (uPA; [5]): 0%
2 | RQRKVANLVG ([2Abz]RQRKVANLVG[Tyr(3-NO2)]-NH2) [LNK032] | 53% | 100% | 100% | 20% | 72% | 95% | 81% | 100% | 100% | 53% | 100% | 100% | 81% | 100% | 100% | 20% | 72% | 95% | 100% | 100% | % vcleavage uPA t = 15 min (uPA; standard conditions (Table 8)): 0%; % cleavage uPA t = 60 min (uPA; standard conditions (Table 8)): 0%; % cleavage uPA t = 120 min (uPA; standard conditions (Table 8)): 0%
3 | RGRRGP ([2Abz]RGRRGP[Tyr(3-NO2)]-NH2) [LNK048] | 0% | 0% | 0% | 0% | 0% | 0% | 0% | 0% | 0% | 0% | 0% | 0% | 100% | 100% | 100% | 0% | 0% | 0% | 0% | 0% | % vcleavage uPA t = 15 min (uPA; standard conditions (Table 8)): 0%; % cleavage uPA t = 60 min (uPA; standard conditions (Table 8)): 0%; % cleavage uPA t = 120 min (uPA; standard conditions (Table 8)): 0%
4 | SGRVAPQPLVD (not fully specified (N-terminus, C-terminus)) [LNK046] | 23% | 74% | 92% | 77% | 100% | 100% | 19% | 64% | 88% | 23% | 74% | 92% | 19% | 65% | 91% | 77% | 100% | 100% | 64% | 88% | % vcleavage uPA t = 15 min (uPA; standard conditions (Table 8)): 1%; % cleavage uPA t = 60 min (uPA; standard conditions (Table 8)): 4%; % cleavage uPA t = 120 min (uPA; standard conditions (Table 8)): 7%
5 | RGRRVANLVG ([2Abz]RGRRVANLVG[Tyr(3-NO2)]-NH2) [LNK033] | 81% | 100% | 100% | 30% | 86% | 98% | 87% | 100% | 100% | 81% | 100% | 100% | 100% | 100% | 100% | 30% | 86% | 98% | 100% | 100% | % vcleavage uPA t = 15 min (uPA; standard conditions (Table 8)): 1%; % cleavage uPA t = 60 min (uPA; standard conditions (Table 8)): 2%; % cleavage uPA t = 120 min (uPA; standard conditions (Table 8)): 3%
6 | RGRRAANLVRPLGYFGKL ([2Abz]RGRRAANLVRPLGYFGKL[Tyr(3-NO2)]-NH2) [LNK060] | 32% | 100% | 100% | 0% | 0% | 0% | 76% | 100% | 100% | – | – | – | – | – | – | – | – | – | – | – | % cleavage Matriptase t = 15 min (matriptase; [1]): 90%; % cleavage Matriptase t = 60 min (matriptase; [1]): 100%; % cleavage Matriptase t = 120 min (matriptase; [1]): 100%; % cleavage MMP-2 t = 15 min (MMP-2; [2]): 76%; % cleavage MMP-2 t = 60 min (MMP-2; [3]): 100%; % cleavage MMP-2 t = 120 min (MMP-2; [4]): 100%; % cleavage uPA t = 15 min (uPA; [5]): 2%; % cleavage uPA t = 60 min (uPA; [5]): 11%; % cleavage uPA t = 120 min (uPA; [5]): 25%
